Laboratory results taken from the DeepSol protein solubility set.

Test: soluble on expression in E. coli; label from the status in PepcDB or PDB records

Sequence | soluble on expression in E. coli
MPSYKLTYFAVRGLAEPARLLFHLAGVPFEDERLTFGDGSWEKLKDKTPMGQMPVLNVDGFEIPQSAAITRYLARKFGFAGKTPEEEAWVDAVVDQFKDFFGEFRKLIIAQRAGKSVEEIEKLTKEVINPAVSSFFKILNGLLEKSKSGYLIGDSITFADLFIAEDMQSLKNFGFLNATEQPKIAAHLEKVYSHPKLKSYIASRPVTEI | not soluble
MPSYKLTYFNVRGYGEPARILFHLADVPFEDFRMTIGDGTWENLKAKTPFGQAPVLSVDGFEIPQSAAINRYLAKQFGYAGKTPEEQAWTDAIVDQYKDFMVSIKEVGKASAAGKSAEEVGKIIQSDLVPARDAFFVIINKILEKSKSGFLVGDGLTIADIVIVECITTLDKHQLFTASEQPKLVALREKVYAIPAIKKWVEIRPDTLN | not soluble
MPTFSLWLPAGSNNVHPCGDPYAHHLFMRCLYHAKHDPTMKFDVKTTNVNKTSQEFKNTGLRRMPGISAEESGETQTFETEDDILDFLEYLKPERGDDEEAENATCDLFRQFARFVKDVEHRDTAFNTELLRLDKYLSEQETKFLISDDVTHIDCLVLTRLHSIRVAAKMLKNYEIPADLSHVLDYLKAGYATEMFRVSCPSDQEIVLHWTELKDTPRLSAKDRAKLVREEPVFSFSV | not soluble
MPTFTTHRQIAHSAREMFDLVADIECYPEFLPMCEALIVRSRKKCEEKTLLLADMTVGYKLVRETFTTQVFLQPKEKRIEVKYIDGPFKYLENRWAFHHTEKSNICNIEFFIDYEFKSKMLGLVMGSMFDIAFHKFTDAFERRAHRIYGSPVI | soluble
MPTLSSNLKHLRLLLGRSQGEFAEQLGIAQSTLSSVERENRPPSTKLINTARFQTGVSAEYFEASIHFYAAPDLLFRSAREGRANADKIAAAFSIAEHYLRERYPDVTSDLPTIPIADLEGELSLRMLEEFASQTRDHFGIDQDSMIPNLTTVLNNHGILVTSLPDYVVEGTNFDGVSTPTDSTLRIIALNQQRSGDRYRFSLAHELAHLILHANTLRSDKSQMEKEANIFAASFLMPRALLTPVITPELTLKDYAELKAQWGYSIQAIVRRAHELELIDYKRYRSLRMQIAGRGWNINEPVDVLLENVYIDPIDLLSNNIKKHQSTNEGLATVTSLHKQ | not soluble
MPTNQDLQLAAHLRSQVTTLTRRLRREAQADPVQFSQLVVLGAIDRLGGDVTPSELAAAERMRSSNLAALLRELERGGLIVRHADPQDGRRTRVSLSSEGRRNLYGNRAKREEWLVRAMHACLDESERALLAAAGPLLTRLAQFEEP | soluble
MPTTQINIVLAEPRCMAGEFFNAKVLLDSSDPDTVVHSFCAEIKGIGRTGWVNIHTDKIFETEKTYIDTQVQLCDSGTCLPVGKHQFPVQIRIPLNCPSSYESQFGSIRYQMKVELRASTDQASCSEVFPLVILTRSFFDDVPLNAMSPIDFKDEVDFTCCTLPFGCVSLNMSLTRTAFRIGESIEAVVTINNRTRKGLKEVALQLIMKTQFEARSRYEHVNEKKLAEQLIEMVPLGAVKSRCRMEFEKCLLRIPDAAPPTQNYNRGAGESSIIAIHYVLKLTALPGNGVLY | not soluble
MPTVPFPILRLPNAILQRSLQQMSPIGLISLSVLSNNMKQIVTMPNNKSRFDGRISTTLPITLHLNVDRNSRHHYVEYAFQFNQSVLRIQDIRGQEPATLTKPGFTDKLWIEHVAEVLFQNKGVILSCDAPFRTYIKELLKNINVTLIAIRSSGFEVWKFFELFPSLEKVTFTEGPIPLSVLSRNLDGLKVNTKDVPLDDALTSNSLSFAMHRNSFTMKEINLFIKQWIRGCNPRLEMFQILFNDIERHLVLENVIFKGINYIEKRNRIVQCQEREEYRIERFDGTEALVWFNPNRFPFLEMTVMMNDDDDKLLV | not soluble
MPVGTAEGIYKRRAIGGTGRPECLPYHFHEMQGALAHRGALDYSALPVQGASWSDLDPLEFERFRRFIRESRGQGDKSLLDLPDVELAKALGAVKANHEVRTVRVLGLLLFGKEEALQRFIPTHEVAFQVLRGTRVEVNDFFRWPLLRTMEELLTRFRAWNHEEEVSFGLMRIGVPNYSERAFREGLANALIHRDYTRLGAVHVQWHEDRIEISNPGGFPEGIHLGNLLVAPPRPRNPLLADAFKRAGVVERTGRGIDIIFEEQLRNGRPAPSYEQSTPESVVLVLPGGEANLNFVRLIVEEGQARRPLRLDELLVLNGLWQERQLTTKEAARLIQKTEATARAVLERLVETGLIEARGTGRGRTYHLSASTYRRLGEEAAYVRLKGFEHQQMEQMVLEYVRAHGRITRREAAELCRIGPYQATRLLKRMVEQGKLTPHGVGKGTWYALRS | soluble
MPVHSRGDKKETNHHDEMEVDYAENEGSSSEDEDTESSSVSEDGDSSEMDDEDCERRRMECLDEMSNLEKQFTDLKDQLYKERLSQVDAKLQEVIAGKAPEYLEPLATLQENMQIRTKVAGIYRELCLESVKNKYECEIQASRQHCESEKLLLYDTVQSELEEKIRRLEEDRHSIDITSELWNDELQSRKKRKDPFSPDKKKPVVVSGPYIVYMLQDLDILEDWTTIRKAMATLGPHRVKTEPPVKLEKHLHSARSEEGRLYYDGEWYIRGQTICIDKKDECPTSAVITTINHDEVWFKRPDGSKSKLYISQLQKGKYSIKHS | soluble
MPYKNILTLISVNNDNFENYFRKIFLDVRSSGSKKTTINVFTEIQYQELVTLIREALLENIDIGYELFLWKKNEVDIFLKNLEKSEVDGLLVYCDDENKVFMSKIVDNLPTAIKRNLIKDFCRKLS | soluble
MQAAKVDTLSVHSDAMNKEVQVITICPDKAMAGEKCPVLYLLHGYGGNAGTWLGIKPELPRIADKEGIIFVCPDGKNSWYWDSPLNKEYRYETFVSKELVNYIDKNFTTKAERGGRAVTGLSMGGHGSLWLSIRHKDVFGGGGSMSGGLDIRPFPNNWEMKKQLGEEASNKQRWDEHTVINQLDKIKNGDLAVIIDCGCDDFFLEVNKAVHEKLLKKKINHDFIIRPGGHTGRYWNNAIDYQILFFSKFFNK | not soluble
MQAEILLTLKLQQKLFADPRRISLLKHIALSGSISQGAKDAGISYKSAWDAINDMNQLSEHMLVERATGGKGGGGAVLTRYGQRLIQLYDLLGQIQQKAFDVLSDDDALPLDSLLAAISRFSLQTSARNQWFGTITARDRDLVQQHVDVLLADGKTRLKVALTAQSGERLGLEEGKEVLILLKAPWVGITRDAAVARAADNQLSGTISHIERGAEQCEVLMALPDGQTLCATIPTSDAATLKEGDDVIAWFNADRVIIATLC | not soluble
MQATLIKPTIFTHQPILEKLFKSQSMTQEESHQLFAAIVRGELEDSQLAAALISMKMRGERPEEIAGAASALLADAQPFPRPDYDFADIVGTGGDGTNSINISTASAFVAASCGAKVAKHGNRSVCQPLAGSCDLLQAFGIRLDMSAEDSRQALDDLNVCFLFAPQYHTGFRHAMPVRQQLKTRTIFNVLGPLINPARPPKALIGVYSPELVLPIAQALKVLGYKNAAVVHGGGMDEVAIHTPTQVAELNNGEIESYQLSPQDFGLQSYSLNALQGGTPEENRDILARLLQGKGDAAHARQVAANVALLLKLFGQDNLRHNAQLALETIRSGTAFERVTALAARG | soluble
MQDFLWKSCAIMGTMKLRIEQDDQYKELEIHITYGQKDKLIERILGFLETVDRQLSCYQEGRKYLVNFSDIYYIESVDKKTFVYLADEIYQTDLRLYQLLHDLQHDGFVQISKSCLLNINVLENIRPLFNSRMEATLLNGERVIVNRRYLPDVKEALKGIQ | not soluble
MQDNSRYTHFLTQHYDAKPQGRDDRYCESIMRRRGLTSDRCKPINTFIHGNKRSIKAICENKNGNPHRENLRISKSSFQVTTCKLHGGSPWPPCQYRATAGFRNVVVACENGLPVHLDQSIFRRP | soluble
MQDPRHPQGLPLSPGLPKRQRQDRTIYNWKQQEVLENHFKEEQYPDYDTRQELAEMLNLREYQVQVWFKNRRAKRSREQWFQKQLQQLQKHPQQQHPQQQHPQQQLQQQQPQQQPQQQQPQQQQLHQQPQ | soluble
MQDRNFDDIAEKFSRNIYGTTKGQLRQAILWQDLDRVLAEMGPQKLRVLDAGGGEGQTAIKMAERGHQVILCDLSAQMIDRAKQAAEAKGVSDNMQFIHCAAQDVASHLETPVDLILFHAVLEWVADPRSVLQTLWSVLRPGGVLSLMFYNAHGLLMHNMVAGNFDYVQAGMPKKKKRTLSPDYPRDPAQVYLWLEEAGWQIMGKTGVRVFHDYLREKYQQRDCYEALLELETRYCRQEPYITLGRYIHVTARKPQSKDKV | not soluble
MQDRSCYKLTQEGERLFRMQKYEKGIDLLKKALEVGTDDFSLLSAIYCQLGNAHTMLKDYEQALKFHTYDILVERLLGNKEGEAKSCANLGNIFKMKGAYNDALTFTFKQLDFAEELGDRVLKSRAYYNIATIYVERGRCTKLEAAEEKNDAKNAEATSDFENAAKYFMLNLEMSEKSEDALTMGRCYGSLGNTYYCLGDYDQSIHFHKLRLELSQQYGDRASMRRAHANIANCHALKSNMPLAIQHYKLAYNLAIEIGNKTEEAQMAYSLANALYIGKEVQKAITYFQRHLKIARSLEDISGQLRSYYSLALSFNNLCERRKALYFLVLAKRSSLQVNDTSALTDIDNLLNEILEAGQEDVLVDDIELIIDESADPAPADIEHRELRLTYFQKRNIHDKPVNTPEDPLAEDRYEKEEFFDMLAKLQSKRMNDQRVDASVLSSNLDFRVRQVDTEPDNSSTDGSEVLIDLLLNAQGRRMDDQRAPFLPGLNPNGQIILRRLNTDPGNEELDEHLVEWLMRVQGERLDEQRSELPPIKPEGQEEVDKKKEEDVTAIVMRMQAGRLEDQRAHLPNIPTSKN | not soluble
MQEAVLQLIEVQLAQEEVTESPLGGDENAQLHASGYYALFVDTVPDDVKRLYTEAATSDFAALAQTAHRLKGVFAMLNLVPGKQLCETLEHLIREKDVPGIEKYISDIDSYVKSLL | soluble
MQEDDSVKPFQTVGAHRDLIHCVSFDPHGRRMATCASDMTMAIWDRKPDGNWRRSAHWKCHGGAVWRVIWAHPEFGQIVATCSYDRTIVIWEEQIVRSEKDLKQKESQWIRRTIISDNRSDVTDICFSPRHLGLMMASCNVLGTVRIYEAPDIVDASRWNLIHELQAFHTRCGCVTWSLSRMHRPLIAVGSDEKKAENKKRVVIYENIDGLRKWQRINSLVFDLPCPITDLKFSPISMVDSHQLAVASGDVHVYNIKVARSAILEEDGVENPIQLADYNLIKVALLGDHRKAWRLRYNLMGSVISSTSLDGTLRSWKSLFVNQWVKLSEMNVDDYVPSPEEVRAFISSKTTERLPSQLEKTYF | not soluble
MQEKTTESRILDATGRPFKVREAKELQTDDVRLAGLHRTFSNHPSSGLTPASAASILLSAEQGDLIAQCELAEDIEEKDGHLFAELDKRKRALIGVDYYLEPPSNPTPQEKADTEYLQQMLEEGGWIKSLIKSIADAILKGFSMHELAWSRELGEWFVEVPEYRDPSWFMTHPERRNELRLRDSTHEGAELWPFGWIKHIHPAKSGYVSRSGLVRQLIWPFIFKNYSVRDLAEFLEIYGLPLRIGQYPAGASDGEKRALLNAVMSIGHNAGGIMPKGMVMDFHSAATGQADPFELMMTWAEKTMSKVILGGTLTTQADGKSSTNALGNVHNEVRQELRDADLALVAETLTRDLIAPLYALNCKSYRSHRRHPRLVFDTTEAEDLRALAYPLRAFVSMGMQIPQNWLHEKTRIPKPANGEAVLVIQQDDPNATAASQTALAALSAKEGAAKQPDASLNEPSQTALDKALDALTQGQMSEAYMGMVEPLLAQLQSEPEQLRAQLEQNYPNMDTEQLTETLARLMFVAELWGMANA | not soluble
